Publication PMC5036048 (Scientific Reports, 2016)

Columns and labels:
[1] = target: T1, N43 (gp41 NHR peptide, Val539~Leu581) (HIV-1 (numbering of HIV-1 HXB2 gp160), UniProt P04578 539-581); assay: cell-based or functional assay
[2] = target: T1, N43 (gp41 NHR peptide, Val539~Leu581); assay: cell-based or functional assay; remark: listed apart in the source

T1 sequence (P04578 539-581): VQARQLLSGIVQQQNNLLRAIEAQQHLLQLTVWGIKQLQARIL

## WMEWDREINNYTSLIHSLIEESQNQQIDL [CP-IDL]
[1]
  IC50 of inhibition of HIV-1 pseudovirus B1206.W6P.ENV.A1 (subtype A): 74.5 nM
  IC50 of inhibition of HIV-1 pseudovirus BG505.W6M.ENV.C2 (subtype A): 8.61 nM
  IC50 of inhibition of HIV-1 pseudovirus BJ412.W6M.ENV.S3 (subtype C): 1.21 nM
  IC50 of inhibition of HIV-1 pseudovirus MJ412.W0M.ENV.B1 (subtype C): 2.24 nM
  IC50 of inhibition of HIV-1 pseudovirus SF162.LS (subtype B, R5, Tier 1): 1.51 nM
  IC50 of inhibition of HIV-1 pseudovirus ZM109F.PB4 (subtype C, R5): 2.93 nM
  IC50 of inhibition of HIV-1 pseudovirus pCH119 env (subtype BC, R5, Tier 2): 5.79 nM
[2]
  IC50 of inhibition of infection, T20-resistant strain N42T, N43K: 382 nM
  IC50 of inhibition of infection, T2635-resistant strain K154Q: 9.79 nM
  IC50 of inhibition of infection, T2635-resistant strain N113E: 7.99 nM
  IC50 of inhibition of infection, T2635-resistant strain N126K: 46.4 nM
  IC50 of inhibition of infection, T2635-resistant strain Q66R, N126K: 302 nM
  IC50 of inhibition of infection, panel of T20-resistant strains: WT: 8.67 nM
  IC50 of inhibition of infection, panel of T2635-resistant strains: WT: 10.8 nM
